Assay results: patent US11419948B2, “Functionalized microgels with fibrin binding elements” (Georgia Tech Research Corporation, priority 2013, dated 2022)

B1: PLPs: ultra-low crosslinked pNIPAm-AAc microgels conjugated to fibrin-specific sdFv H6 (conjugate)
VH: QVQLLESGGGLVQPGGSLRLSCAASGDRFTHNDMGWVRQAPGKGLEWVSTIPTTDGSTYYADSVKGRFTISRDNSKSTLYLQMNSLRAEDTAVYYCATGYMWKAPAYVKYWGQGTLVTVSSAAAEQKLISEEDLNSAAHYTDIG
B2: H6: fibrin-specific human sdFv clone from phage biopanning, SEQ ID NO: 1 (protein)
VHH: QVQLLESGGGLVQPGGSLRLSCAASGDRFTHNDMGWVRQAPGKGLEWVSTIPTTDGSTYYADSVKGRFTISRDNSKSTLYLQMNSLRAEDTAVYYCATGYMWKAPAYVKYWGQGTLVTVSSAAAEQKLISEEDLNSAAHYTDIG

Assays:
[1] = tested on: femoral vein injury; experiment: Rat femoral vessel traumatic injury model; assay type: in vivo
Excerpt: To test the efficacy of PLPs in hemostasis, a well-established rat femoral vessel traumatic injury model was used^13-15. This model results in an easily visualized, continuous stream of blood flowing from the injury site. All protocols were approved by the Georgia Institute of Technology IACUC. Adult Sprague-Dawley male rats (200-250 g) were anesthetized with 5% isoflurane. Following anesthesia, an incision was made on the right hindlimb to expose the femoral vessels. A portion of the femoral vein was isolated from the surrounding connective tissue by placing a small piece of foil between the vessel and the underlying tissue. Following isolation of the vessel, the cavity will be irrigated with 0.9% irrigation fluid at 37° C. Animals were then administered 500 μL of saline (vehicle), purified human factor VIIa ([…], 100 μg/kg the current standard of care, purchased from Innovative Research), PLPs (20 mg/mL) or S11-ULC microgels (20 mg/mL) via tail vein injection using a 24 gauge catheter. Six (6) animals were tested per condition. Following a 5 minute circulation time, injury was induced to the right femoral vein by piercing the vein with a 22 gauge needle. A gauze was lightly placed below the injury site to collect blood, allowing for better visualization of the injury site as well as measurement of total blood loss. Gauze were changed every ten seconds for the first 30 seconds following injury and then every 30 s until bleeding ceased. Bleeding time was defined as the time required for bleeding to cease for a minimum of 10 s. Following cessation of bleeding, animals were euthanized with carbon dioxide. Following cessation of bleeding, animals were euthanized and organs separated, fixed with 10% formalin, paraffin embedded and 5 μm sections were produced using a Microm […] Microtome (Thermo Scientific). Co-localization of PLPs were characterized through immunofluorescence staining for the MYC-tag encoded on the sdFvs and through Martius Scarlet Blue (MSB) staining for fibrin in adjacent serial sections. For MYC-tag staining, samples were counter stained with Hoescht (Invitrogen) to visualize nuclei. All statistical analyses for bleeding time studies were performed with Prism software program (GraphPad, San Diego Calif.). Bleeding and blood weight data were statistically analyzed using repeated measures analysis of variance using the Tukey test at a 95% confidence interval.

[2] = tested on: human plasma components; experiment: Quantitative human plasma binding ELISA; settings: five 10-fold plasma dilutions
Method: The quantitative assay involved coating a 96-well high-binding plate with five different 10-fold plasma dilutions. H6, S11, or a positive-control anti-fibrinogen antibody were incubated in these wells to allow for binding with plasma components to occur. All wells were set-up in triplicate. After washing away unbound nanobody or antibody and treating with appropriate secondary antibodies and ELISA reagents, the amount of H6, S11 or anti-fibrinogen antibody remaining in each well was measured spectrophotomerically in a plate reader. All readings were normalized to wells in which PBS was incubated with plasma.

Row | Molecule | total blood loss ([1]; compared to S11-ULC microgels, p<0.05) | fibrin staining in vessels ([1]; postmortem) | localization at wound (MYC-tag staining, MSB fibrin staining) ([1]; postmortem wound tissue) | blood loss over time (bleeding dynamics) ([1]; rat) | bleeding time compared to vehicle only ([1]; rat, tail vein injection) | Bleeding time ([1]; rat, tail vein injection, 5 minute circulation time) [s] | binding to plasma-coated plate [2]
1 | B1 | significantly less | higher levels of fibrin staining | co-localization of PLPs with fibrin clots | slowest blood loss over time | significantly decreased | 117 ± 16 | –
2 | B2 | – | – | – | – | – | – | negligible binding
